In PMC2841500 (Biochemical Journal, 2010):
Residue numbers refer to the chain shown, from its start. Numbers in names are those of the source. Where two headings read alike, the source gives them in different places.

Key:
pulsed ESR = target: the molecule itself; test: pulsed ESR
Alba1 F60A [1] = target: T1, Alba1 F60A (Sulfolobus solfataricus, UniProt P60849 1-97, F60A); test: EMSA
T1 sequence: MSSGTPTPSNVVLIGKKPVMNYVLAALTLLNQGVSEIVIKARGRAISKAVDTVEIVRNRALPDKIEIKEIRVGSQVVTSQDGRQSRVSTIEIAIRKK

Alba1 F60A [2] = target: T1, Alba1 F60A; test: EMSA; remark: listed apart in the source
Alba1 (Sso10b) [3] = target: T2, Alba1 (Sso10b) (Sulfolobus solfataricus, UniProt P60849 1-97); test: EMSA
T2 sequence: T1 sequence with A60F

Alba1 (Sso10b) [4] = target: T2, Alba1 (Sso10b); test: EMSA; remark: listed apart in the source
Alba1 (Sso10b) [5] = target: T2, Alba1 (Sso10b); test: EMSA; remark: listed apart in the source
Alba1 (Sso10b) [6] = target: T2, Alba1 (Sso10b); test: EMSA; remark: listed apart in the source

B1: spin-labelled Alba R59C (S. solfataricus Alba1 R59C modified with MTSSL) (natural protein, Sulfolobus solfataricus, UniProt P60849 1-97, looked up)
chain: T1 sequence with R59C, A60F
modifications: methanethiosulfonate spin label MTSSL on the cysteine at position 59
Does B1 bind (pulsed ESR)?
Result: binds

B2: 39 bp duplex (dsDNA)
DNA 1: CCTCGGTGCTAAGTTGATGCTGGTACTCGGAGTATCCCG
DNA 2: CGGGATACTCCGAGTACCAGCATCAACTTAGCACCGAGG
B2 was tested. Which Kd (Alba1 F60A [1]) did it give?
Its Kd is 520 ± 13 nM.

B3: 16 bp duplex (dsDNA)
DNA 1: CCCGGCGTGCGGCCCG
DNA 2: CGGGCCGCACGCCGGG
B3 was tested. Which Kd (Alba1 F60A [2]) did it give?
Its Kd is 710 ± 20 nM.

CCTCGGTGCTAAGTTGATGCTGGTACTCGGAGTATCCCG (ssDNA) [39 mer ssDNA] was tested. Which Kd (Alba1 (Sso10b) [3]) did it give?
The Kd was 270 ± 13 nM.

UUUUUUUUUUUUUUUUUUUUUUUUUUUUUU (ssRNA) [30U] was tested. Which Kd (Alba1 (Sso10b) [4]) did it give?
The Kd was 900 ± 38 nM.

AAAAAAAAAAAAAAAAAAAAAAAAAAAA (ssRNA) [28A] was tested. Which Kd (Alba1 (Sso10b) [5]) did it give?
Its Kd is 960 ± 30 nM.

Which Kd (Alba1 (Sso10b) [6]) does the source give for CCCGGCGUGCGGCCCG (ssRNA) [16 mer ssRNA] here?
Its Kd is 920 ± 69 nM.
